Like-named read-outs stand apart in the source and are kept apart here.
What was measured:
[1] = molecular target: CTB-DV1EDIII (after TEV cleavage of hRID-CTB-DV1EDIII) (not stated | dengue virus serotype 1 (DenKor-07 strain)) (UniProt P01556); experiment: SEC
[2] = molecular target: CTB-DV1EDIII (after TEV cleavage of hRID-CTB-DV1EDIII) (not stated | dengue virus serotype 1 (DenKor-07 strain)) (UniProt P01556)
[3] = molecular target: CTB-DV1EDIII (after TEV cleavage of hRID-CTB-DV1EDIII) (not stated | dengue virus serotype 1 (DenKor-07 strain)) (UniProt P01556); experiment: SDS-PAGE without DTT and boiling (native SDS-PAGE)

Measured: stoichiometry N

CTB-DV1EDIII (after TEV cleavage of hRID-CTB-DV1EDIII) (from UniProt P01556 22-124)
5: all assays above
